{"source": "paper PMC12176258", "about": "“Stabilization of the catalytically active structure of a molybdenum‐dependent formate dehydrogenase depends on a highly conserved lysine residue” (The Febs Journal, 2025)", "proteins": {"B1": {"name": "EcFDH-H (Escherichia coli formate dehydrogenase H) (Escherichia coli K-12) (protein)", "chain": "MKKVVTVCPYCASGCKINLVVDNGKIVRAEAAQGKTNQGTLCLKGYYGWDFINDTQILTPRLKTPMIRRQRGGKLEPVSWDEALNYVAERLSAIKEKYGPDAIQTTGSSRGTGNETNYVMQKFARAVIGTNNVDCCARVUHGPSVAGLHQSVGNGAMSNAINEIDNTDLVFVFGYNPADSHPIVANHVINAKRNGAKIIVCDPRKIETARIADMHIALKNGSNIALLNAMGHVIIEENLYDKAFVASRTEGFEEYRKIVEGYTPESVEDITGVSASEIRQAARMYAQAKSAAILWGMGVTQFYQGVETVRSLTSLAMLTGNLGKPHAGVNPVRGQNNVQGACDMGALPDTYPGYQYVKDPANREKFAKAWGVESLPAHTGYRISELPHRAAHGEVRAAYIMGEDPLQTDAELSAVRKAFEDLELVIVQDIFMTKTASAADVILPSTSWGEHEGVFTAADRGFQRFFKAVEPKWDLKTDWQIISEIATRMGYPMHYNNTQEIWDELRHLCPDFYGATYEKMGELGFIQWPCRDTSDADQGTSYLFKEKFDTPNGLAQFFTCDWVAPIDKLTDEYPMVLSTVREVGHYSCRSMTGNCAALAALADEPGYAQINTEDAKRLGIEDEALVWVHSRKGKIITRAQVSDRPNKGAIYMTYQWWIGACNELVTENLSPITKTPEYKYCAVRVEPIADQRAAEQYVIDEYNKLKTRLREAALA", "notes": "full-length selenocysteine-containing enzyme, C-terminal His6-tag, from pTrc99a-fdhF in E. coli JG-X (MC4100 delta-fdhF delta-iscR) with helper pSU21-selC; holds Mo(MGD)2 and one [4Fe-4S] cluster"}, "B2": {"name": "EcFDH-H (Escherichia coli formate dehydrogenase H) (Escherichia coli K-12; K44R) (protein)", "chain": "B1 chain with K44R", "notes": "as for B1"}}, "key": {"purified protein [1]": {"substrate": "O=CO", "assay": "purified protein", "conditions": "2 mM BV2+ fixed, formate 0.125-200 mM, 50 mM phosphate pH 7.5, 25 °C, anaerobic"}, "purified protein [2]": {"substrate": "c1ccc(C[n+]2ccc(-c3cc[n+](Cc4ccccc4)cc3)cc2)cc1", "assay": "purified protein", "type": "biochemical, Escherichia coli", "conditions": "10 mM formate fixed, BV2+ 0.125-20 mM, 50 mM phosphate pH 7.5, 25 °C, anaerobic, artificial electron acceptor"}}, "note": "Residue numbers refer to the chain shown, from its start. Numbers in names are those of the source.", "data": [{"protein": "B1", "values": [{"measurement": "Km", "setting": "purified protein [1]", "result": "1850 ± 270", "unit": "µM"}, {"measurement": "Km", "setting": "purified protein [2]", "result": "2750 ± 500", "unit": "µM"}]}, {"protein": "B2", "values": [{"measurement": "Km", "setting": "purified protein [1]", "result": "58610 ± 6150", "unit": "µM"}, {"measurement": "Km", "setting": "purified protein [2]", "result": "2210 ± 370", "unit": "µM"}]}]}
